Data as given in patent publication US20250206837A1 (ELIXIRON IMMUNOTHERAPEUTICS HONG KONG, published 2025).
Numbering of substitutions follows the chain as printed. Names may count otherwise. “And” between values parts separate entries of the source, which are not always exact repeats. Equal entries are not always repeated.

B1: 117 (antibody, V domains shown)
VH: EVQLVESGGGLVQPGGSLRLSCAASGFTISSFGIHWVRQAPGKGLEWVAWIAPYGGYTYYADSVKGRFTISADTSKNTAYLQMNSLRAEDTAVYYCARSFFGYFDYWGQGTLVTVSS
VL: DIQMTQSPSSLSASVGDRVTITCRASQDVSNWVAWYQQKPGKAPKLLISYATSLYSGVPSRFSGSGSGTDFTLTISSLQPEDFATYYCQQHSNAPLTFGQGTKVEIKR
notes: Full-length IgG, human kappa
B2: 117_57EE (antibody, V domains shown)
VH: B1 VH with Y57E, T58E
VL: B1 VL
notes: full-length IgG, human kappa
B3: 117_30DE (antibody, V domains shown)
VH: B1 VH with S30D, Y57E
VL: B1 VL
notes: full-length IgG, human kappa
B4: 117_57DE (antibody, V domains shown)
VH: B1 VH with Y57D, T58E
VL: B1 VL
notes: full-length IgG, human kappa
B5: 117 (IgG1) (antibody)
heavy: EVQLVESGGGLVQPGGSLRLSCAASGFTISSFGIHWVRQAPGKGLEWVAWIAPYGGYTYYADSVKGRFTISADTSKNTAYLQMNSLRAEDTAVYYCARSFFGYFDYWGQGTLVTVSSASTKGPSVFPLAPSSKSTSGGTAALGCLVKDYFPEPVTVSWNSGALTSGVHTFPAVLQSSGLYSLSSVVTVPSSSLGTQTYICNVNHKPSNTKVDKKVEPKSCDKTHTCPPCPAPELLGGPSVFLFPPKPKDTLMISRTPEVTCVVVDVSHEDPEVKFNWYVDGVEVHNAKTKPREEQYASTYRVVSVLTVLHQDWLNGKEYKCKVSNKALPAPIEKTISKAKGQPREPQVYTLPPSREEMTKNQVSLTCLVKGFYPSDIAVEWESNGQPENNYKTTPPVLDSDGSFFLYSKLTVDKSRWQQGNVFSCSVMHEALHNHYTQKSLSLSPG
light: DIQMTQSPSSLSASVGDRVTITCRASQDVSNWVAWYQQKPGKAPKLLISYATSLYSGVPSRFSGSGSGTDFTLTISSLQPEDFATYYCQQHSNAPLTFGQGTKVEIKRTVAAPSVFIFPPSDEQLKSGTASVVCLLNNFYPREAKVQWKVDNALQSGNSQESVTEQDSKDSTYSLSSTLTLSKADYEKHKVYACEVTHQGLSSPVTKSFNRGEC
notes: Human IgG1-N297A, kappa
B6: 117 (IgG4) (antibody)
heavy: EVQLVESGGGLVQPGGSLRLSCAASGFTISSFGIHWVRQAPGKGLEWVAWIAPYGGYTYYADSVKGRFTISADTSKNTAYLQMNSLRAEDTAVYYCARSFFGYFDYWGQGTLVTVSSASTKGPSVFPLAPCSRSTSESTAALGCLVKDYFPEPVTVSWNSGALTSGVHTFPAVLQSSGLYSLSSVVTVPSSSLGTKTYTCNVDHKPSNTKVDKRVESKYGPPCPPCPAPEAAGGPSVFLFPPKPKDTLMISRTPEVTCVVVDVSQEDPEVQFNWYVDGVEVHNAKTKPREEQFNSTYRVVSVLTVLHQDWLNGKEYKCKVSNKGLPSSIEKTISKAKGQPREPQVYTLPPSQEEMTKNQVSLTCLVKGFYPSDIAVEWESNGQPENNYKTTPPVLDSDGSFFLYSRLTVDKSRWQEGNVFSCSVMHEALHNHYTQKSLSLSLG
light: B5 light
notes: Human IgG4-S228P/F234A/L235A, kappa
B7: 117_57D (IgG4) (antibody)
heavy: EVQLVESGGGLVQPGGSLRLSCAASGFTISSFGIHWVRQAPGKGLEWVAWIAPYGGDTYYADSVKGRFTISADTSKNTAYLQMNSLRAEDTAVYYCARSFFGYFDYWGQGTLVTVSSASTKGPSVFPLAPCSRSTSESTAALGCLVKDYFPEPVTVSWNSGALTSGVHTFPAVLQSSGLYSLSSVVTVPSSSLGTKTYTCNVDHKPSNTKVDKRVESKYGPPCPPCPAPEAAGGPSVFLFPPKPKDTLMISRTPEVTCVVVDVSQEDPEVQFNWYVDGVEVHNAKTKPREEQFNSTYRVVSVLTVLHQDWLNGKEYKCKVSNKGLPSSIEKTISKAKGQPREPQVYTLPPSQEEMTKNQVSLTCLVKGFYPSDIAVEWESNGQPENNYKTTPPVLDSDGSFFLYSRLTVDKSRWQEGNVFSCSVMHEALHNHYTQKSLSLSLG
light: B5 light
notes: Human IgG4-S228P-FALA, kappa
B8: 117_DA57E (IgG4) (antibody, V domains shown)
VH: B1 VH with S30D, S31A, Y57E
VL: B1 VL
notes: Human IgG4-S228P-FALA, kappa
B9: 117_57E (IgG4) (antibody)
heavy: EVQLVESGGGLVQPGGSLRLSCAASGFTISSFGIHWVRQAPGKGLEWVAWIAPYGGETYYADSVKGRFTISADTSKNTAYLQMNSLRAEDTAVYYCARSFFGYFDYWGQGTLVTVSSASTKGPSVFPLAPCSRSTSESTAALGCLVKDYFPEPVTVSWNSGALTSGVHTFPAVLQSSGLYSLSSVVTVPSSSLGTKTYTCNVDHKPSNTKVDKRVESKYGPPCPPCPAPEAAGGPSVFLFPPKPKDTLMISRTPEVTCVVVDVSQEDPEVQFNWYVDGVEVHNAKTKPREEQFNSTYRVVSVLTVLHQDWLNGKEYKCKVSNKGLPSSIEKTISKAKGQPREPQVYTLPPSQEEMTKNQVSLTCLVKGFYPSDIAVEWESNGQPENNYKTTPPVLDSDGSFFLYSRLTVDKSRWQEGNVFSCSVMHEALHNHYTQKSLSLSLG
light: B5 light
notes: Human IgG4-S228P-FALA, kappa
B10: 117_57E (IgG1) (antibody)
heavy: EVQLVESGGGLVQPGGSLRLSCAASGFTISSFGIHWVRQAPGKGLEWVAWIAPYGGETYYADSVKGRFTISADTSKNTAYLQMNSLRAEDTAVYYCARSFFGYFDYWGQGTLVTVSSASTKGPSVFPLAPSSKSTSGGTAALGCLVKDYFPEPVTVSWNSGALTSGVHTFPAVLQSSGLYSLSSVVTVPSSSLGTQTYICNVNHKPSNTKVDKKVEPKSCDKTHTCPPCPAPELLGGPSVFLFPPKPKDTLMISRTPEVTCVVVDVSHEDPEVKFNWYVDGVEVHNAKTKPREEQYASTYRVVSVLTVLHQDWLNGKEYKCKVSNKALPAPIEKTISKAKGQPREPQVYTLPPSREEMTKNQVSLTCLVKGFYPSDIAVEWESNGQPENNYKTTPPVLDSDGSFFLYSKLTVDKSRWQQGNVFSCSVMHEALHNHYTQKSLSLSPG
light: B5 light
B11: 117_30DE (IgG4) (antibody, V domains shown)
VH: B1 VH with S30D, Y57E
VL: B1 VL
notes: Human IgG4-S228P-FALA, kappa
B12: 117_30DA (IgG4) (antibody, V domains shown)
VH: B1 VH with S30D, S31A
VL: B1 VL
notes: Human IgG4-S228P-FALA, kappa
B13: 117_54E (IgG1) (antibody, V domains shown)
VH: B1 VH with Y54E
VL: B1 VL
B14: 117_57EE (IgG1) (antibody, V domains shown)
VH: B1 VH with Y57E, T58E
VL: B1 VL
B15: 117_DA57D (IgG4) (antibody, V domains shown)
VH: B1 VH with S30D, S31A, Y57D
VL: B1 VL
B16: 117_31A (IgG1) (antibody)
heavy: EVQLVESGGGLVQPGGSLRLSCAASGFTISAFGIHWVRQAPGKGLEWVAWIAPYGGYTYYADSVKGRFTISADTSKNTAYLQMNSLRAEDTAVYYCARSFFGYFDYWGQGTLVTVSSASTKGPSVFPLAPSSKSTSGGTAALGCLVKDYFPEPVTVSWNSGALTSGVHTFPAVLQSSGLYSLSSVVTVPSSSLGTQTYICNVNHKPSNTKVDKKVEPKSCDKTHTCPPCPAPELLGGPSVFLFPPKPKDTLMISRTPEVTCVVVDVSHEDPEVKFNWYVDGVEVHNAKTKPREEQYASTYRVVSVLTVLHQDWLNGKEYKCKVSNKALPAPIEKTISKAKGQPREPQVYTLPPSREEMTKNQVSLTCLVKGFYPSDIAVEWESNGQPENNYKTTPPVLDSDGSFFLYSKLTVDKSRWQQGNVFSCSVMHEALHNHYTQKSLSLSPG
light: B5 light
B17: 117_30AA (IgG4) (antibody, V domains shown)
VH: B1 VH with S30A, S31A
VL: B1 VL
notes: Human IgG4-S228P-FALA, kappa
B18: 117_57D (IgG1) (antibody)
heavy: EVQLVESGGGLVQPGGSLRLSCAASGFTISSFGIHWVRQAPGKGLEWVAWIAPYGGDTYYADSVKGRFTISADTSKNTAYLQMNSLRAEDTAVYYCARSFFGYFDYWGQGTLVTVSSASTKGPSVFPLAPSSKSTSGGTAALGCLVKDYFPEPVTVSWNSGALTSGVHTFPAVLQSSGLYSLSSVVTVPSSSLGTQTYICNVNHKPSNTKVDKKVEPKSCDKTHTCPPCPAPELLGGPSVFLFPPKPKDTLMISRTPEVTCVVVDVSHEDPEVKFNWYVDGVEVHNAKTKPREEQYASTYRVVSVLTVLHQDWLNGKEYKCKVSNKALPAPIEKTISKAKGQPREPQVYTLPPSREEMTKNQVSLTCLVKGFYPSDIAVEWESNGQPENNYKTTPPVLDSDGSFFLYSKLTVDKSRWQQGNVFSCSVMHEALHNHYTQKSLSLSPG
light: B5 light
B19: 117_31A (IgG4) (antibody)
heavy: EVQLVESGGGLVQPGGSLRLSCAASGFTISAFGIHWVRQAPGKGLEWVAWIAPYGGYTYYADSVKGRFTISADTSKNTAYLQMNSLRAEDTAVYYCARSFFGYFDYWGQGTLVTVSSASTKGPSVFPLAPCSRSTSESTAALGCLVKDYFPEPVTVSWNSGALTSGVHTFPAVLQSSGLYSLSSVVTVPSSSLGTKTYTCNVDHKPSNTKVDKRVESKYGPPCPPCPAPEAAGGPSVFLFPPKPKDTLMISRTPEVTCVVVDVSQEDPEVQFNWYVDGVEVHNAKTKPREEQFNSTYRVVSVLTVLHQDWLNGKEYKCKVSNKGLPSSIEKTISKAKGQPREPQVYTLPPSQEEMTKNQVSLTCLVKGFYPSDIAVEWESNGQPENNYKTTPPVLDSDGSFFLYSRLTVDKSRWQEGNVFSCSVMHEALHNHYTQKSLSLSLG
light: B5 light

Each binder was assayed against T1, rhesus CD36-His overexpressed on stable F293 cells (rhesus, UniProt P16671 2-472 (human entry)) (assay: flow cytometry, F293 cells overexpressing rhesus CD36).
T1 construct: Gene segment from Sino Biological; also called F293/rhesusCD36; not shown: His tag
T1 sequence (P16671 other isoform, or with tags, fused parts or gaps): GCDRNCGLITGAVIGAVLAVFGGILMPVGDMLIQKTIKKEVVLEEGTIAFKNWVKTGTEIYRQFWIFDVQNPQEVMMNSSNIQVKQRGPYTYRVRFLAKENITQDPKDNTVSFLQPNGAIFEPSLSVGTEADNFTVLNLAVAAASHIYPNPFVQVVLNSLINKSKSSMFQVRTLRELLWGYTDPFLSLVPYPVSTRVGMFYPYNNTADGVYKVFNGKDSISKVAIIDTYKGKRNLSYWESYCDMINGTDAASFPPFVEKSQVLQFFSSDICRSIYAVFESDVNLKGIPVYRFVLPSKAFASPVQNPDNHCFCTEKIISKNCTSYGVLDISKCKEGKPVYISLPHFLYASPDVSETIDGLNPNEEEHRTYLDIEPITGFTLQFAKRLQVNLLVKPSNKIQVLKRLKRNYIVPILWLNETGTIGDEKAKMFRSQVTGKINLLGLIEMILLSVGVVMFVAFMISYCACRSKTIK
From the text: (§1) After washing with FACS buffer (2% FBS in PBS), the cells were stained with anti-human IgG-Alexa Fluor 647 and analyzed by Attune NxT Flow Cytometer (Thermo Scientific).
With B1 the EC50 was 0.886 µg/mL and 0.582 µg/mL.
In the case of B2, the EC50 is reported as 0.407 µg/mL.
Binder B3 has an EC50 of 0.403 µg/mL.
Binder B4 has an EC50 of 0.529 µg/mL.

Each binder was assayed against T2, full-length human CD36-Flag overexpressed on stable F293 cells (human, UniProt P16671 2-472) (assay: flow cytometry, F293 cells overexpressing human CD36).
T2 construct: Gene segment from Sino Biological; also called F293/hCD36; hCD36; not shown: Flag tag
T2 sequence (P16671 2-472): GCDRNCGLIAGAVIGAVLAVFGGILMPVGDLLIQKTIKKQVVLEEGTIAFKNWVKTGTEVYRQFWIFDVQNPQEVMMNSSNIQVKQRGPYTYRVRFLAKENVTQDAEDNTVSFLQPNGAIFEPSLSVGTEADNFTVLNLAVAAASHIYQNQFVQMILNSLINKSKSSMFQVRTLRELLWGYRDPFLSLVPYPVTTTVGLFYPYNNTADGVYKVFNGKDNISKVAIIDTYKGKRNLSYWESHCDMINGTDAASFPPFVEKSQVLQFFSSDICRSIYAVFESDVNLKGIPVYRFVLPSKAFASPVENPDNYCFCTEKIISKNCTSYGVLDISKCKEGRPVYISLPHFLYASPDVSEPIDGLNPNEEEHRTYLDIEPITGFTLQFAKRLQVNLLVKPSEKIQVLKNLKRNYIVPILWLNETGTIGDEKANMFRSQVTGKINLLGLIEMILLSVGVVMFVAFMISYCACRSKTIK
From the text: as §1
For B1, the EC50 was 0.18 µg/mL and 0.123 µg/mL.
Work on B2 yielded an EC50 of 0.093 µg/mL.
B3 gave an EC50 of 0.107 µg/mL.
For B4, the EC50 was 0.129 µg/mL.

These binders were tested against T2, full-length human CD36-Flag … (assay: cell-based or functional assay).
For B1, the “oxLDL uptake IC50 (nM), F293/hCD36” value was 0.702 nM.
In the case of B2, the “oxLDL uptake IC50 (nM), F293/hCD36” value is reported as 0.348 nM.
B3 was tested, and the “oxLDL uptake IC50 (nM), F293/hCD36” value was 0.299 nM.

These binders were tested against T3, mouse CD36-His overexpressed on stable F293 cells (mouse, UniProt Q08857 1-472) (assay: flow cytometry, F293 cells overexpressing mouse CD36).
T3 construct: Gene segment from Sino Biological; also called F293/mCD36; mCD36; not shown: His tag
T3 sequence (Q08857 whole entry): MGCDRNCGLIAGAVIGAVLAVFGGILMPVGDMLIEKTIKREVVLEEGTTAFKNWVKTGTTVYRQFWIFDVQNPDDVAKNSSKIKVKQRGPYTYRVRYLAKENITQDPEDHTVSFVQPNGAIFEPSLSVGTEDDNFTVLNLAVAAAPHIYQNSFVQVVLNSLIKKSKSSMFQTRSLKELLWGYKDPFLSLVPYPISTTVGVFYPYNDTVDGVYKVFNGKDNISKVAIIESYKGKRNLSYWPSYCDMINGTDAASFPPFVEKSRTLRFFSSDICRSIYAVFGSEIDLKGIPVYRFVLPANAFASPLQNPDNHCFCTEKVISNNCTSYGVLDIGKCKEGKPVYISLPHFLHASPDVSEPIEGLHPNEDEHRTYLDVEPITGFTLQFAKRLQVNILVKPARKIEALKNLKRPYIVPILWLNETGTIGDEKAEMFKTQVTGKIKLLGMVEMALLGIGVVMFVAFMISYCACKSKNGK
From the text: as §1
For B1, the EC50 was 0.46 µg/mL and 0.361 µg/mL.
For B2, the EC50 was 0.319 µg/mL.
B3 was tested, and the EC50 was 0.342 µg/mL.
B4 was tested, and the EC50 was 0.447 µg/mL.

These binders were tested against T4, Recombinant His-tagged human CD36.ECD protein (Sino Biological) (human, UniProt P16671 30-439) (assay: BLI (Octet), antibody on AHC sensor, His-tagged hCD36.ECD in solution, 1:1 fit).
T4 construct: Bought protein; also called hCD36.ECD; hCD36; not shown: His tag
T4 sequence (P16671 30-439 limits assumed): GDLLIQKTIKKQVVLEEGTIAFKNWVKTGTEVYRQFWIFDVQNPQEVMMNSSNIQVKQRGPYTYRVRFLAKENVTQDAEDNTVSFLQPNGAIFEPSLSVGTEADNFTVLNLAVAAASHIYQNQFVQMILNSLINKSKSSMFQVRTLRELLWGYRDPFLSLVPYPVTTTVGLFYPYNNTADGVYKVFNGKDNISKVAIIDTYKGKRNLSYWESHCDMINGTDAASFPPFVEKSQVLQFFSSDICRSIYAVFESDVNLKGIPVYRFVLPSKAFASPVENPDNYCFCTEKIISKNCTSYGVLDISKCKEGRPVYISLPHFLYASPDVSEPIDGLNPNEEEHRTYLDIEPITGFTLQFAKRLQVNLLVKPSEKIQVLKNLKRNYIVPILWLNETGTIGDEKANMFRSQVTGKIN
Protocol: BLI assay materials and method: Kinetic rate constants, ka and kd, for binding of the anti-CD36 antibodies to human CD36 were measured by Bio-Layer Interferometry (BLI) (ForteBio Octet RED96). […] Rate constants were calculated by curve fitting analyses (1:1 Langmuir model) of binding response with a 2.5-minute association and 5-minute dissociation interaction time.
B5 was tested, and the Kd was 4.79 nM and 6.72 nM, the koff was 0.00213 s⁻¹ and 0.00235 s⁻¹ and the kon was 445000 M⁻¹ s⁻¹ and 350000 M⁻¹ s⁻¹.
With B6 the Kd was 6.49 nM, the koff was 0.0025 s⁻¹ and the kon was 386000 M⁻¹ s⁻¹.
B7 showed a Kd of 4.96 nM, a koff of 0.00167 s⁻¹ and a kon of 336000 M⁻¹ s⁻¹.
Work on B8 yielded a Kd of 2.52 nM, a koff of 0.000803 s⁻¹ and a kon of 319000 M⁻¹ s⁻¹.
For B9, the Kd was 5.28 nM, the koff was 0.00171 s⁻¹ and the kon was 325000 M⁻¹ s⁻¹.
Binder B10 has a Kd of 4.93 nM, a koff of 0.00182 s⁻¹ and a kon of 370000 M⁻¹ s⁻¹.
With B11 the Kd was 3.09 nM, the koff was 0.000981 s⁻¹ and the kon was 317000 M⁻¹ s⁻¹.
B12 gave a Kd of 3.91 nM, a koff of 0.00133 s⁻¹ and a kon of 339000 M⁻¹ s⁻¹.
Binder B13 has a Kd of 4.16 nM, a koff of 0.00407 s⁻¹ and a kon of 978000 M⁻¹ s⁻¹.
B14 was tested, and the Kd was 4.27 nM, the koff was 0.00155 s⁻¹ and the kon was 364000 M⁻¹ s⁻¹.
Work on B15 yielded a Kd of 2.64 nM, a koff of 0.000838 s⁻¹ and a kon of 317000 M⁻¹ s⁻¹.
B16 showed a Kd of 4.05 nM, a koff of 0.00182 s⁻¹ and a kon of 449000 M⁻¹ s⁻¹.
With B17 the Kd was 5.74 nM, the koff was 0.00282 s⁻¹ and the kon was 491000 M⁻¹ s⁻¹.
With B18 the Kd was 4.69 nM, the koff was 0.00175 s⁻¹ and the kon was 373000 M⁻¹ s⁻¹.
With B19 the Kd was 4.32 nM, the koff was 0.00205 s⁻¹ and the kon was 475000 M⁻¹ s⁻¹.
